Test results: patent US20220048967A1 (published 2022)
Substitutions are numbered along the chain they refer to.

T1: human gastric inhibitory peptide receptor (GIPR) (human, UniProt P48546 22-466)
T1 sequence (looked up): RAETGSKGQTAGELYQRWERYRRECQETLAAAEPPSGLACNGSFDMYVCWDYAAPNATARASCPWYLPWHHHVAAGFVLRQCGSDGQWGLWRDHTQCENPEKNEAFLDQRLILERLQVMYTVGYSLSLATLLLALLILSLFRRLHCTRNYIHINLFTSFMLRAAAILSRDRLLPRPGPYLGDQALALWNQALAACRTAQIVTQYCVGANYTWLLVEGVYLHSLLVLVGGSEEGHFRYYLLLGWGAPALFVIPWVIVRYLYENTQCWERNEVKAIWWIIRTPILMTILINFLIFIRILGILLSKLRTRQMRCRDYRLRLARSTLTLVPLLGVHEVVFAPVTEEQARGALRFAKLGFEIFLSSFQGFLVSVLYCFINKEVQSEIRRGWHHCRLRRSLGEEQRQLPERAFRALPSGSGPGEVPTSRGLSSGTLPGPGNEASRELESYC

B1: Example 360 (peptide)
peptide: XXEGTFTSDYSIXLDXKAQXAFVEYLIEGGPSSGAPPPS
modifications: D-Tyr1; Aib2; αMeL13; Orn16; K17 conjugated to (2-[2-(2-Amino-ethoxy)-ethoxy]-acetyl)2-(γ-Glu)-CO-(CH2)18-CO2H; Aib20; C-terminal amide
B2: Example 368 (peptide)
peptide: B1 peptide with A21E, V23I, E28A
modifications: D-Tyr1; Aib2; αMeL13; Orn16; K17 conjugated to (2-[2-(2-Amino-ethoxy)-ethoxy]-acetyl)2-(γ-Glu)-CO-(CH2)16-CO2H; Aib20; C-terminal amide
B3: Example 364 (peptide)
peptide: B1 peptide with E24X, E28A
modifications: D-Tyr1; Aib2; αMeL13; Orn16; K17 conjugated to (2-[2-(2-Amino-ethoxy)-ethoxy]-acetyl)2-(γ-Glu)-CO-(CH2)16-CO2H; Aib20; D-Glu24; C-terminal amide
B4: Example 366 (peptide)
peptide: B1 peptide with V23I, Y25X, E28A
modifications: D-Tyr1; Aib2; αMeL13; Orn16; K17 conjugated to (2-[2-(2-Amino-ethoxy)-ethoxy]-acetyl)2-(γ-Glu)-CO-(CH2)18-CO2H; Aib20; αMeY25; C-terminal amide
B5: Example 365 (peptide)
peptide: B1 peptide with X16K, V23I, Y25X, E28A
modifications: D-Tyr1; Aib2; αMeL13; K17 conjugated to (2-[2-(2-Amino-ethoxy)-ethoxy]-acetyl)2-(γ-Glu)-CO-(CH2)18-CO2H; Aib20; αMeY25; C-terminal amide
B6: Example 363 (peptide)
peptide: B1 peptide with V23I, E24X, E28A
modifications: D-Tyr1; Aib2; αMeL13; Orn16; K17 conjugated to (2-[2-(2-Amino-ethoxy)-ethoxy]-acetyl)2-(γ-Glu)-CO-(CH2)16-CO2H; Aib20; D-Glu24; C-terminal amide
B7: Example 362 (peptide)
peptide: B1 peptide with E24X, E28A
modifications: D-Tyr1; Aib2; αMeL13; Orn16; K17 conjugated to (2-[2-(2-Amino-ethoxy)-ethoxy]-acetyl)2-(γ-Glu)-CO-(CH2)18-CO2H; Aib20; D-Glu24; C-terminal amide
B8: Example 371 (peptide)
peptide: B1 peptide with A21E, V23I, E28A
modifications: D-Tyr1; Aib2; αMeL13; Orn16; K17 conjugated to (2-[2-(2-Amino-ethoxy)-ethoxy]-acetyl)-(γ-Glu)-CO-(CH2)18-CO2H; Aib20; C-terminal amide
B9: Example 361 (peptide)
peptide: B1 peptide with X16K, E24X, E28A
modifications: D-Tyr1; Aib2; αMeL13; K17 conjugated to (2-[2-(2-Amino-ethoxy)-ethoxy]-acetyl)2-(γ-Glu)-CO-(CH2)18-CO2H; Aib20; D-Glu24; C-terminal amide
B10: Example 369 (peptide)
peptide: B1 peptide with A21D, V23I, E28A
modifications: D-Tyr1; Aib2; αMeL13; Orn16; K17 conjugated to (2-[2-(2-Amino-ethoxy)-ethoxy]-acetyl)2-(γ-Glu)-CO-(CH2)18-CO2H; Aib20; C-terminal amide
B11: Example 367 (peptide)
peptide: YXEGTFTSDYSIXLDKKAQXEFIEXLIAGGPSSGAPPPS
modifications: Aib2; αMeL13; K17 conjugated to (2-[2-(2-Amino-ethoxy)-ethoxy]-acetyl)2-(γ-Glu)-CO-(CH2)18-CO2H; Aib20; αMeY25; C-terminal amide
B12: Example 372 (peptide)
peptide: B11 peptide with Y1X
modifications: D-Tyr1; Aib2; αMeL13; K17 conjugated to (2-[2-(2-Amino-ethoxy)-ethoxy]-acetyl)-(γ-Glu)-CO-(CH2)18-CO2H; Aib20; αMeY25; C-terminal amide
B13: Example 370 (peptide)
peptide: XXEGTFTSDYSIXLDXKAQXEFIEYLIAGGPSSG
modifications: D-Tyr1; Aib2; αMeL13; Orn16; K17 conjugated to (2-[2-(2-Amino-ethoxy)-ethoxy]-acetyl)2-(γ-Glu)-CO-(CH2)18-CO2H; Aib20; C-terminal amide
B14: Example 381 (peptide)
peptide: B11 peptide with Y1X, K16E, E21A
modifications: D-Tyr1, Aib2, αMeL13, K17 conjugated to (2-[2-(2-Amino-ethoxy)-ethoxy]-acetyl)2-(γ-Glu)-CO-(CH2)18-CO2H, Aib20, αMeY25, C-terminal amide (NH2)
B15: Example 371 (peptide)
peptide: B1 peptide with A21E, V23I, E28A
modifications: D-Tyr1, Aib2, αMeL13, Orn16, K17 conjugated to (2-[2-(2-Amino-ethoxy)-ethoxy]-acetyl)-(γ-Glu)-CO-(CH2)18-CO2H, Aib20, C-terminal amide (NH2)
B16: Example 363 (peptide)
peptide: B1 peptide with V23I, E24X, E28A
modifications: D-Tyr1, Aib2, αMeL13, Orn16, K17 conjugated to (2-[2-(2-Amino-ethoxy)-ethoxy]-acetyl)2-(γ-Glu)-CO-(CH2)16-CO2H, Aib20, D-Glu24, C-terminal amide (NH2)
B17: Example 365 (peptide)
peptide: B11 peptide with Y1X, E21A
modifications: D-Tyr1, Aib2, αMeL13, K17 conjugated to (2-[2-(2-Amino-ethoxy)-ethoxy]-acetyl)2-(γ-Glu)-CO-(CH2)18-CO2H, Aib20, αMeY25, C-terminal amide (NH2)

biological target: T1, human gastric inhibitory peptide …; test: cell-based or functional assay

Going from B1 to B2, the “hGIPR cAMP EC50 ratio” value falls from 0.53 ratio to 0.109 ratio.

Going from B3 to B4, the “hGIPR cAMP EC50 ratio” value rises from 0.347 ratio to 0.598 ratio.

First: B5
Second: B6
The “hGIPR cAMP EC50 ratio” value of the first is lower: 0.784 ratio for the first, 0.835 ratio for the second.

Going from B7 to B8, the “hGIPR cAMP EC50 ratio” value rises from 0.347 ratio to 0.393 ratio.

Compared with B9, B10 is higher in “hGIPR cAMP EC50 ratio” value: 0.261 ratio for the first, 0.499 ratio for the second.

Compared with B11, B12 is lower in “hGIPR cAMP EC50 ratio” value: 5.85 ratio for the first, 0.68 ratio for the second.

With B13 the “hGIPR cAMP EC50 ratio” value was 0.704 ratio.

First: B1
Second: B2
The “hGIPR cAMP Rel EC50” value of the first is 2.6-fold higher: 0.197 nM for the first, 0.0757 nM for the second.

Compared with B3, B4 is 3.9-fold lower in “hGIPR cAMP Rel EC50” value: 0.351 nM for the first, 0.0889 nM for the second.

Compared with B5, B6 is 2.1-fold higher in “hGIPR cAMP Rel EC50” value: 0.0678 nM for the first, 0.145 nM for the second.

First: B7
Second: B8
The “hGIPR cAMP Rel EC50” value of the first is 2.2-fold higher: 0.302 nM for the first, 0.135 nM for the second.

Going from B9 to B10, the “hGIPR cAMP Rel EC50” value falls from 0.401 nM to 0.166 nM (2.4-fold).

Compared with B11, B12 is 4.4-fold higher in “hGIPR cAMP Rel EC50” value: 0.0179 nM for the first, 0.0781 nM for the second.

B13 was tested, and the “hGIPR cAMP Rel EC50” value was 0.117 nM.

biological target: human GLP-1 receptor (GLP-1R) (human, UniProt P43220 24-463); test: cell-based or functional assay

Compared with B1, B2 is higher in “hGLP1R cAMP EC50 ratio” value: 0.171 ratio for the first, 0.299 ratio for the second.

Compared with B3, B4 is higher in “hGLP1R cAMP EC50 ratio” value: 0.0303 ratio for the first, 0.074 ratio for the second.

Compared with B5, B6 is lower in “hGLP1R cAMP EC50 ratio” value: 0.155 ratio for the first, 0.146 ratio for the second.

Going from B7 to B8, the “hGLP1R cAMP EC50 ratio” value rises from 0.0805 ratio to 0.206 ratio.

Going from B9 to B10, the “hGLP1R cAMP EC50 ratio” value rises from 0.0259 ratio to 0.319 ratio.

Going from B11 to B12, the “hGLP1R cAMP EC50 ratio” value falls from 0.386 ratio to 0.0741 ratio.

For B13, the “hGLP1R cAMP EC50 ratio” value was 0.172 ratio.

B1 and B2 are within 1.5-fold of each other in “hGLP1R cAMP Rel EC50” value: 0.145 nM for the first, 0.108 nM for the second.

Going from B3 to B4, the “hGLP1R cAMP Rel EC50” value falls from 1 nM to 0.366 nM (2.7-fold).

B5 and B6 are within 1.5-fold of each other in “hGLP1R cAMP Rel EC50” value: 0.175 nM for the first, 0.208 nM for the second.

First: B7
Second: B8
The “hGLP1R cAMP Rel EC50” value of the first is 2.8-fold higher: 0.365 nM for the first, 0.132 nM for the second.

Going from B9 to B10, the “hGLP1R cAMP Rel EC50” value falls from 0.955 nM to 0.101 nM (9.5-fold).

First: B11
Second: B12
The “hGLP1R cAMP Rel EC50” value of the first is 5.7-fold lower: 0.0641 nM for the first, 0.365 nM for the second.

B13 was tested, and the “hGLP1R cAMP Rel EC50” value was 0.186 nM.

biological target: human GLP-1 receptor (human, UniProt P43220 24-463); test: cell-based or functional assay

Going from B14 to B15, the “hGLP1R GTPgS % Top” value falls from 73.6% to 62.5%.

First: B16
Second: B17
The “hGLP1R GTPgS % Top” value of the first is higher: 69.6% for the first, 66.9% for the second.

B14 and B15 are within 1.5-fold of each other in “hGLP1R GTPgS Rel EC50” value: 0.273 nM for the first, 0.27 nM for the second.

Going from B16 to B17, the “hGLP1R GTPgS Rel EC50” value falls from 0.943 nM to 0.464 nM (2-fold).

biological target: Pro-Link-tagged Human GLP-1R (human, UniProt P43220 24-463); test: cell-based or functional assay

Compared with B14, B15 is lower in “hGLP1R B-Arrestin2 % Top” value: 25.8% for the first, 21.7% for the second.

Compared with B16, B17 is lower in “hGLP1R B-Arrestin2 % Top” value: 22.1% for the first, 20.8% for the second.

B14 and B15 are within 1.5-fold of each other in “hGLP1R B-Arrestin2 Rel EC50” value: 15.5 nM for the first, 14.2 nM for the second.

First: B16
Second: B17
The “hGLP1R B-Arrestin2 Rel EC50” value of the first is 19-fold higher: 135 nM for the first, 7.03 nM for the second.
